Results taken from patent US20250136708A1 (YEDA RESEARCH AND DEVELOPMENT, published 2025).

Experiments:
[1] = target: T1, human ATP6V1B2 on the surface of senescent human cells (IMR-90 lung fibroblasts, IPF lung fibroblasts, A549 … (human, UniProt P21281 1-511)); test: FACS, non-permeabilized senescent IMR-90 cells, antibody at 10 ug/ml
T1 construct: whole, on cells; Endogenous protein on cells; also called surface ATP6V1B2; surface protein expressed in senescent human lung fibroblasts
Method: (§1) Control, growing IMR-90 or CCL-206 cells were seeded 24h prior to testing day. On testing day, the medium was aspirated, and cells were gently detached using warm TrypLE Express solution (Thermo Fisher Scientific) followed by the addition of cold FACS buffer (PBS/5% FBS). ATP6V1B2 antibodies were added to the tubes containing the cells and the tubes were incubated for 60-70 minutes at 4C and centrifuged. Antibodies 2G05, 2E11 and 4G06 were tested at 10 ug/ml. Commercial antibodies-LS-B13421 (LS Bio), ab200839 (Abcam), and SC-55544 (Santa Cruz) were used at 20 ug/ml. Two hundred fifty ul of secondary antibody (anti mouse Alexa 647, Jackson 115-605-146 diluted in FACS buffer 1:300) were added and the tubes were incubated for 40 minutes at 4 C. Following incubation, 600 ul FACS buffer supplemented with DAPI (diluted 1:20,000) were added to each tube and the tubes were centrifuged. Cell pellets were resuspended in 200 ul FACS buffer. The samples were analyzed using GUAVA Flow Cytometry analyzer. Data was analyzed using the FCSalyzer 0.9.18-alpha software. Duplicates and dead cells (DAPI positive cells) were excluded.

[2] = target: T2, mouse ATP6V1B2 on the surface of senescent mouse lung fibroblasts (CCL-206) (mouse, UniProt P62814 1-511); test: FACS, non-permeabilized senescent CCL-206 cells, antibody at 10 ug/ml
T2 construct: whole, on cells; Endogenous protein on mouse cells
Method: Surface binding was examined in non-permeabilized cells using FACS. FIG. 4A: antibody 2G05.
as §1

T2 sequence (P62814 whole entry): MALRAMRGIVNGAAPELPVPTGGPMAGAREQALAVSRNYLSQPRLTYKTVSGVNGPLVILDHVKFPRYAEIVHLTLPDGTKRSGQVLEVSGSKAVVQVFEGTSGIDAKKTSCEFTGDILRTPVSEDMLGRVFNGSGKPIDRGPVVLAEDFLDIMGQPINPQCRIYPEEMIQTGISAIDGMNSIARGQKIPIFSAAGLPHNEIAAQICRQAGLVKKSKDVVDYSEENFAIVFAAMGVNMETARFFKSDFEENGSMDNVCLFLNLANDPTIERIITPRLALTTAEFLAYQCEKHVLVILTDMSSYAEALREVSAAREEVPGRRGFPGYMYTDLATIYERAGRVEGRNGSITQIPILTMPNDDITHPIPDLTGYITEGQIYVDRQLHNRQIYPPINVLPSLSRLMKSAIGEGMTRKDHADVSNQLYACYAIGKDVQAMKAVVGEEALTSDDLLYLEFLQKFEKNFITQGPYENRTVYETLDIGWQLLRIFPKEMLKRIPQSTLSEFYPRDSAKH
T1 sequence (P21281 whole entry): as the sequence (P62814 whole entry) above, with M25A, A26V, K460R, T464A, Y474F counted along it

- binding result [1]: binds
- binding result [2]: binds
B1: anti-ATP6V1B2 antibody 2E11 (antibody, V domains shown)
VH: EVQLQQSGAELVKPGASAKMSCRAPGYTFTSYWITWVKQRPGQGLEWIGDIYPGSGSTNYNEKFKTKATLTVDTSSSTAYMQLSSLTSEDSAVYYCAELGTFDYWGQGTTLTVST
VL: DVVVTQTPLSLPVSLGDQASISCRSSQSLVHSNGNTYLHWYLQKPGQSPKLLIYKVSNRFSGVPDRFSGSGSGTDFTLKISRVEAEDLGVYFCSQSTHVPYTFGGGTKLEIK
notes: detection was with an anti-mouse secondary antibody
